Assay results: article PMC10119312, “Structural insights into RNase J that plays an essential role in Mycobacterium tuberculosis RNA metabolism” (Nature Communications, 2023)

Key:
Mtb-RNase J 1-375/D85A = biological target: T1, Mtb-RNase J 1-375/D85A (Mycobacterium tuberculosis H37Rv, UniProt P9WGZ9 1-375, D85A); test: EMSA; 0.5 uM RNA; binding abolished; settings: protein: recombinant; tags: N-terminal 6xHis-SUMO, removed by ULP1; single strand
T1 sequence: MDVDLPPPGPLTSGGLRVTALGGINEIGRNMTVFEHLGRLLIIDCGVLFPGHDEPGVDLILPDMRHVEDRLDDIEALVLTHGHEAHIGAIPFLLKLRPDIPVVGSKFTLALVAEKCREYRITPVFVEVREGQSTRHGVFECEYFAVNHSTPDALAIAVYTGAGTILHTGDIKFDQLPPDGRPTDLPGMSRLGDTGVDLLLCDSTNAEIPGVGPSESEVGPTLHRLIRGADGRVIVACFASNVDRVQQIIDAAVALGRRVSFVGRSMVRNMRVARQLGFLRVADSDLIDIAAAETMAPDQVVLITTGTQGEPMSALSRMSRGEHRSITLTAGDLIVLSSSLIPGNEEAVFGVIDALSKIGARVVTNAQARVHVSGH

[1] = biological target: T2, Mtb-RNase J D85A (catalytically inactive) (Mycobacterium tuberculosis H37Rv, UniProt P9WGZ9 1-558, D85A); test: X-ray crystal structure; settings: protein: recombinant; tags: N-terminal 6xHis-SUMO, removed by ULP1; chain copies: 2; single strand
T2 sequence: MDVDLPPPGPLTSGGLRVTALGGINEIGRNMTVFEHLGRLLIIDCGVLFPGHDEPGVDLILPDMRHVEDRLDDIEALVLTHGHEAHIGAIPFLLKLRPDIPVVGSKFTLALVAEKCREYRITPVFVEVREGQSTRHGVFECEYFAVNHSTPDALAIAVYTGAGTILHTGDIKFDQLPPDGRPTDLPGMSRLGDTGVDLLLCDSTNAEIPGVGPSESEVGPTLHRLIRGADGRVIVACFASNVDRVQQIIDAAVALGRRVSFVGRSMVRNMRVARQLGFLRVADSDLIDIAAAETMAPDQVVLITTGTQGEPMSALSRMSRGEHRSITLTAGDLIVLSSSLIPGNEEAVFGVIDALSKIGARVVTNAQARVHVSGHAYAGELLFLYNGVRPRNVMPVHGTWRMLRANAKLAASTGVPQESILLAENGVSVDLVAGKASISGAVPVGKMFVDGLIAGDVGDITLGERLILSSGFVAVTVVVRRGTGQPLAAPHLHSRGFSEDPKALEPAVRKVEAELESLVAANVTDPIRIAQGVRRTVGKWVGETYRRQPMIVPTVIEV

SEC = biological target: the molecule itself; test: SEC
[2] = biological target: T2, Mtb-RNase J D85A (catalytically …); test: EMSA; settings: protein: recombinant; tags: N-terminal 6xHis-SUMO, removed by ULP1; chain copies: 2; label: 5'-FAM; single strand
crystal structure = biological target: the molecule itself; test: crystal structure

## UUCCGUUUAUUCAUACUUCA (ssRNA) [20-nt RNA (called poly(U) in legends; Methods print a mixed sequence)]
Mtb-RNase J 1-375/D85A
  binding result: no binding

## AAAAAAA (ssRNA) [7-nt poly(A) ssRNA]
[1]
  binding result: binds

B1: Mtb-RNase J truncated mutant 1-450 (domain or fragment)
chain: MDVDLPPPGPLTSGGLRVTALGGINEIGRNMTVFEHLGRLLIIDCGVLFPGHDEPGVDLILPDMRHVEDRLDDIEALVLTHGHEDHIGAIPFLLKLRPDIPVVGSKFTLALVAEKCREYRITPVFVEVREGQSTRHGVFECEYFAVNHSTPDALAIAVYTGAGTILHTGDIKFDQLPPDGRPTDLPGMSRLGDTGVDLLLCDSTNAEIPGVGPSESEVGPTLHRLIRGADGRVIVACFASNVDRVQQIIDAAVALGRRVSFVGRSMVRNMRVARQLGFLRVADSDLIDIAAAETMAPDQVVLITTGTQGEPMSALSRMSRGEHRSITLTAGDLIVLSSSLIPGNEEAVFGVIDALSKIGARVVTNAQARVHVSGHAYAGELLFLYNGVRPRNVMPVHGTWRMLRANAKLAASTGVPQESILLAENGVSVDLVAGKASISGAVPVGKMFVD
notes: also called truncated protein (1–450); not shown: 6xHis-sumo, N-terminal, cleaved
SEC
  stoichiometry N: 2

B2: Mtb-RNase J truncated mutant 1-470 (domain or fragment)
chain: MDVDLPPPGPLTSGGLRVTALGGINEIGRNMTVFEHLGRLLIIDCGVLFPGHDEPGVDLILPDMRHVEDRLDDIEALVLTHGHEDHIGAIPFLLKLRPDIPVVGSKFTLALVAEKCREYRITPVFVEVREGQSTRHGVFECEYFAVNHSTPDALAIAVYTGAGTILHTGDIKFDQLPPDGRPTDLPGMSRLGDTGVDLLLCDSTNAEIPGVGPSESEVGPTLHRLIRGADGRVIVACFASNVDRVQQIIDAAVALGRRVSFVGRSMVRNMRVARQLGFLRVADSDLIDIAAAETMAPDQVVLITTGTQGEPMSALSRMSRGEHRSITLTAGDLIVLSSSLIPGNEEAVFGVIDALSKIGARVVTNAQARVHVSGHAYAGELLFLYNGVRPRNVMPVHGTWRMLRANAKLAASTGVPQESILLAENGVSVDLVAGKASISGAVPVGKMFVDGLIAGDVGDITLGERLILSS
notes: also called C-terminal truncation (1–470); C-terminal domain-depletion protein (1-470); not shown: 6xHis-sumo, N-terminal, cleaved
SEC
  stoichiometry N: 2

## AAAAAAAAA (ssRNA) [9-nt poly(A) RNA]
[2]
  binding result: binds

B3: Mtb-RNase J (D85A), catalytically inactive mutant (enzyme)
chain: T2 sequence
notes: also called Mtb-RNase J D85A mutant; Mtb-RNase J/ssRNA (in complex with poly(A) ssRNA); not shown: 6xHis-sumo, N-terminal, cleaved
Crystal structure
  stoichiometry N: 2
